Data from patent US20200397886A1 (University of Washington, published 2020).

Molecular target: T1, I53-50A
T1 construct: Trimeric nanostructure component without antigen, used in the 33% and 66% valency particles; also called I53-50A trimers
T1 chain: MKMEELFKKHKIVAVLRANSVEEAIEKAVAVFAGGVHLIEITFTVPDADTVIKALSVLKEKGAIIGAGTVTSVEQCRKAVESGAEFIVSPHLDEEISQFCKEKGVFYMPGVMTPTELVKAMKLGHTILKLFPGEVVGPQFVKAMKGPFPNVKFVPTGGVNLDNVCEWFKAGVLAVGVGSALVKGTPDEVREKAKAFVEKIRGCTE
Assay: in vitro co-assembly of partial valency particles

B1: I53-50B.4PosT1 (designed binder)
chain: MNQHSHKDHETVRIAVVRARWHAEIVDACVSAFEAAMRDIGGDRFAVDVFDVPGAYEIPLHARTLAETGRYGAVLGTAFVVNGGIYRHEFVASAVINGMMNVQLNTGVPVLSAVLTPHNYDKSKAHTLLFLALFAVKGMEAARACVEILAAREKIAA
notes: Pentameric nanostructure component expressed in E. coli; the N-terminal methionine is said to be optional; also called I53-50B.4PT1; I53-50B.4PT
- binding result: binds
